Tests used:
BcFLC = BcFLC (Brassica campestris (syn. Brassica …, UniProt A4L9R7 1-196)); assay: EMSA; cold probe competition 10x, 100x, 250x; Chemiluminescent EMSA kit (Beyotime); buffer, salt, pH and temperature not stated; settings: protein: recombinant; tags: GST (pGEX-4T-1); chain copies: 2; label: biotin (5' and 3' ends per Methods); blunt
BcCCA1 = BcCCA1 (Brassica campestris (syn. Brassica …, UniProt F5B4H3 1-554)); assay: as above; settings: protein: recombinant; tags: His (pCold-His); label: biotin (5' and 3' ends per Methods); blunt
Sequence of BcCCA1 (Brassica campestris (F5B4H3 entry or part of it): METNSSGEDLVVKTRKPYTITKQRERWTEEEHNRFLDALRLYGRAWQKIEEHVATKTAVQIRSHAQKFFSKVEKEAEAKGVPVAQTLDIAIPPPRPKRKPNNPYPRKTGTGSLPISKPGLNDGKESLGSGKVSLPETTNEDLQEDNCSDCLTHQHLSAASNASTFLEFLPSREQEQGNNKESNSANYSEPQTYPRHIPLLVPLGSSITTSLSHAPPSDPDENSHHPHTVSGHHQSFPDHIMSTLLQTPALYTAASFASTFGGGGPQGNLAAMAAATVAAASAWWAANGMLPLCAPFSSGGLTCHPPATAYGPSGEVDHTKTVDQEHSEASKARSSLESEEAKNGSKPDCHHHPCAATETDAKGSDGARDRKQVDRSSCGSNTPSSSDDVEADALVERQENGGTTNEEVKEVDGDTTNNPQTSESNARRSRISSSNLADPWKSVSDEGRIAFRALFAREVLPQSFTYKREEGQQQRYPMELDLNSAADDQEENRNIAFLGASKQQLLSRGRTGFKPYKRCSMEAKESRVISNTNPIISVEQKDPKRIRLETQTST

Sequence of BcFLC (Brassica campestris (A4L9R7 entry or part of it): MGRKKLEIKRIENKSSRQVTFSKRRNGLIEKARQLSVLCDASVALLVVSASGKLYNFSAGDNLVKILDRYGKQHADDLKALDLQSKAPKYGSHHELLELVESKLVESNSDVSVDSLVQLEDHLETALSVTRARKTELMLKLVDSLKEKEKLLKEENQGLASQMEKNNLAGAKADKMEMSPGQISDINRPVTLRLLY

B1: GATA probe (BcSOC1 promoter) (dsDNA)
DNA 1: GTAAAGGATGAGGTTTCAAG
DNA 2: CTTGAAACCTCATCCTTTAC
binding result (BcFLC): binds

B2: MBS probe (BcSOC1 promoter) (dsDNA)
DNA 1: TCCCCGTCAACGTATGTTGA
DNA 2: TCAACATACGTTGACGGGGA
binding result (BcCCA1): binds

From publication PMC11359169, “[…] CLOCK-ASSOCIATED1 Delays Flowering by Directly Inhibiting the Transcription of BcSOC1 in Pak-choi”
